Reference: patent publication US20080292632A1 (US Dept. of Health and Human Services, published 2008)

Target: T1, CD30 on transfected 293T cells (human, UniProt P28908 19-595)
T1 construct: whole, on cells
T1 sequence (looked up): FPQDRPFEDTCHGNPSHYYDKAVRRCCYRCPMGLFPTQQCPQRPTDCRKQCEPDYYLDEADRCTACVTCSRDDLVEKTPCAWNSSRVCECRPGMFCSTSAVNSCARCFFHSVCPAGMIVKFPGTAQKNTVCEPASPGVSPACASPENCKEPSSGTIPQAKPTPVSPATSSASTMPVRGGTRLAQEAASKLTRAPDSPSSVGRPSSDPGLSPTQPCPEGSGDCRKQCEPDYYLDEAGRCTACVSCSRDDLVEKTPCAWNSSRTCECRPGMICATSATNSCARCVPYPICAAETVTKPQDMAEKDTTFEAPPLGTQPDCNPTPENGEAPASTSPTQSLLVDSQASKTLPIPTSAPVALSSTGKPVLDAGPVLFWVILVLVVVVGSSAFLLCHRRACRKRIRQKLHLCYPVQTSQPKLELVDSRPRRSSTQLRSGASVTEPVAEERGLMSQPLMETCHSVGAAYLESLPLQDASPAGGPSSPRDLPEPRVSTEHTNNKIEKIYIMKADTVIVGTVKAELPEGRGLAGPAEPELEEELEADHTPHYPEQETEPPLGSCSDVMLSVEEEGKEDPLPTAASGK
Test: cell-ELISA, formalin-fixed cells
Description: Cell-ELISA. […] After overnight culture, the cells were fixed with 3.7% formalin in the culture medium at room temperature overnight. Incubation with a dilution of MAbs, secondary antibody and substrate was performed as described in the ELISA protocol except that 1% FBS in PBS was used for washing.

- binding result: no binding (tested: ’0.2)
B1: F25 (antibody, IgG2a, V domains shown)
VH: EVQLQQSGPELVKPGTSVKMSCKASGYSFTGYFMNWMMQNHGKSLEWIGRINLYNGDTFYNQKFKDKATLTVDKSSNTVHMEFRSLASEDSAVYYCASSLYYFDYWGQGTTFTVSS
VL: DIVMTQSHKFMSTSVGDRVNITCKASQDVGTNVAWYQQKPGQSPKLLIYWASTRQTGVPDRFTGSGSGTDFTLTISNVQSEDLSDYFCQQYSSYPLTFGAGTKLELKR
notes: mouse hybridoma MAb, IgG2a, kappa; also called MAb F25; biotin-MAb F25
